How the values were obtained:
[1] = target: T1, tubulin covalently linked to a biotinylated stathmin-like peptide; assay: ELISA (off-rate estimation); conditions: chain shown with the change, incubation with 100 nM soluble tubulin to prevent rebinding, read off a plot
[2] = target: T1, tubulin covalently linked to a …; assay: ELISA; conditions: chain shown with the change, buffer incubation after binding, read off a plot
[3] = 2 nM biotinylated peptide-coupled tubulin for coating, parent: est. 0.046
[4] = 10 nM biotinylated peptide-coupled tubulin for coating, parent: est. 0.11
[5] = 2 nM biotinylated peptide-coupled tubulin for coating, parent: est. 0.082
[6] = 10 nM biotinylated peptide-coupled tubulin for coating, parent: est. 0.32

B1: DARPin D1 H118R (protein)
chain: MRGSHHHHHHGSDLGKKLLEAARAGQDDEVRILMANGADVNATDASGLTPLHLAATYGHLEIVEVLLKHGADVNAIDIMGSTPLHLAALIGHLEIVEVLLKHGADVNAVDTWGDTPLRLAAIMGHLEIVEVLLKHGADVNAQDKFGKTAFDISIDNGNEDLAEILQKLN
**Q.** How did the response [1, 3] turn out when B1 was run?
**A.** 0.45 AU

**Q.** What about the response [1, 4] of the same binder?
**A.** 0.76 AU

**Q.** What about the response [2, 5] of the same binder?
**A.** 0.71 AU

**Q.** What about the response [2, 6] of the same binder?
**A.** 0.76 AU

B2: DARPin D1 I152T; N158S (protein)
chain: MRGSHHHHHHGSDLGKKLLEAARAGQDDEVRILMANGADVNATDASGLTPLHLAATYGHLEIVEVLLKHGADVNAIDIMGSTPLHLAALIGHLEIVEVLLKHGADVNAVDTWGDTPLHLAAIMGHLEIVEVLLKHGADVNAQDKFGKTAFDTSIDNGSEDLAEILQKLN
**Q.** With B2 as the binder, how does the response [1, 3] read?
**A.** 0.27 AU

**Q.** And the response [2, 5]?
**A.** 0.61 AU

B3: DARPin D1 N158S (protein)
chain: MRGSHHHHHHGSDLGKKLLEAARAGQDDEVRILMANGADVNATDASGLTPLHLAATYGHLEIVEVLLKHGADVNAIDIMGSTPLHLAALIGHLEIVEVLLKHGADVNAVDTWGDTPLHLAAIMGHLEIVEVLLKHGADVNAQDKFGKTAFDISIDNGSEDLAEILQKLN
**Q.** What does the source list for B3?
**A.** response [1, 3]: 0.045 AU; response [1, 4]: 0.14 AU; response [2, 5]: 0.15 AU; response [2, 6]: 0.59 AU

B4: DARPin D1 I122V (protein)
chain: MRGSHHHHHHGSDLGKKLLEAARAGQDDEVRILMANGADVNATDASGLTPLHLAATYGHLEIVEVLLKHGADVNAIDIMGSTPLHLAALIGHLEIVEVLLKHGADVNAVDTWGDTPLHLAAVMGHLEIVEVLLKHGADVNAQDKFGKTAFDISIDNGNEDLAEILQKLN
**Q.** What does the source list for B4?
**A.** response [1, 4]: 0.12 AU; response [2, 6]: 0.22 AU

B5: DARPin D1 V131A (protein)
chain: MRGSHHHHHHGSDLGKKLLEAARAGQDDEVRILMANGADVNATDASGLTPLHLAATYGHLEIVEVLLKHGADVNAIDIMGSTPLHLAALIGHLEIVEVLLKHGADVNAVDTWGDTPLHLAAIMGHLEIVEALLKHGADVNAQDKFGKTAFDISIDNGNEDLAEILQKLN
**Q.** With B5 as the binder, how does the response [1, 4] read?
**A.** 0.1 AU

**Q.** What about the response [2, 6] of the same binder?
**A.** 0.24 AU

B6: DARPin D1 N74S (protein)
chain: MRGSHHHHHHGSDLGKKLLEAARAGQDDEVRILMANGADVNATDASGLTPLHLAATYGHLEIVEVLLKHGADVSAIDIMGSTPLHLAALIGHLEIVEVLLKHGADVNAVDTWGDTPLHLAAIMGHLEIVEVLLKHGADVNAQDKFGKTAFDISIDNGNEDLAEILQKLN
**Q.** B6 was tested. Which response [1, 4] did it give?
**A.** 0.18 AU

**Q.** What about the response [2, 6] of the same binder?
**A.** 0.28 AU

B7: DARPin D1 H118R; I122V (protein)
chain: MRGSHHHHHHGSDLGKKLLEAARAGQDDEVRILMANGADVNATDASGLTPLHLAATYGHLEIVEVLLKHGADVNAIDIMGSTPLHLAALIGHLEIVEVLLKHGADVNAVDTWGDTPLRLAAVMGHLEIVEVLLKHGADVNAQDKFGKTAFDISIDNGNEDLAEILQKLN
**Q.** With B7 as the binder, how does the response [1, 4] read?
**A.** 0.69 AU

**Q.** And the response [2, 6]?
**A.** 0.73 AU

B8: DARPin D1 F150Y; I152T; N158S (protein)
chain: MRGSHHHHHHGSDLGKKLLEAARAGQDDEVRILMANGADVNATDASGLTPLHLAATYGHLEIVEVLLKHGADVNAIDIMGSTPLHLAALIGHLEIVEVLLKHGADVNAVDTWGDTPLHLAAIMGHLEIVEVLLKHGADVNAQDKFGKTAYDTSIDNGSEDLAEILQKLN
**Q.** How did the response [1, 4] turn out when B8 was run?
**A.** 0.69 AU

**Q.** What about the response [2, 6] of the same binder?
**A.** 0.75 AU

B9: DARPin D1 I152T (protein)
chain: MRGSHHHHHHGSDLGKKLLEAARAGQDDEVRILMANGADVNATDASGLTPLHLAATYGHLEIVEVLLKHGADVNAIDIMGSTPLHLAALIGHLEIVEVLLKHGADVNAVDTWGDTPLHLAAIMGHLEIVEVLLKHGADVNAQDKFGKTAFDTSIDNGNEDLAEILQKLN
**Q.** What does the source list for B9?
**A.** response [1, 3]: 0.075 AU; response [1, 4]: 0.44 AU; response [2, 5]: 0.48 AU; response [2, 6]: 0.79 AU

B10: DARPin D1 N74S; I76S; I78L (protein)
chain: MRGSHHHHHHGSDLGKKLLEAARAGQDDEVRILMANGADVNATDASGLTPLHLAATYGHLEIVEVLLKHGADVSASDLMGSTPLHLAALIGHLEIVEVLLKHGADVNAVDTWGDTPLHLAAIMGHLEIVEVLLKHGADVNAQDKFGKTAFDISIDNGNEDLAEILQKLN
**Q.** For B10, which response [1, 4] is on record?
**A.** 0.18 AU

**Q.** And the response [2, 6]?
**A.** 0.34 AU

B11: DARPin D1 F150Y (protein)
chain: MRGSHHHHHHGSDLGKKLLEAARAGQDDEVRILMANGADVNATDASGLTPLHLAATYGHLEIVEVLLKHGADVNAIDIMGSTPLHLAALIGHLEIVEVLLKHGADVNAVDTWGDTPLHLAAIMGHLEIVEVLLKHGADVNAQDKFGKTAYDISIDNGNEDLAEILQKLN
**Q.** With B11 as the binder, how does the response [1, 4] read?
**A.** 0.13 AU

**Q.** And the response [2, 6]?
**A.** 0.26 AU

B12: DARPin D1 E127K; V131A (protein)
chain: MRGSHHHHHHGSDLGKKLLEAARAGQDDEVRILMANGADVNATDASGLTPLHLAATYGHLEIVEVLLKHGADVNAIDIMGSTPLHLAALIGHLEIVEVLLKHGADVNAVDTWGDTPLHLAAIMGHLKIVEALLKHGADVNAQDKFGKTAFDISIDNGNEDLAEILQKLN
**Q.** B12 was tested. Which response [1, 4] did it give?
**A.** 0.075 AU

**Q.** What about the response [2, 6] of the same binder?
**A.** 0.31 AU

B13: DARPin D1 I78L (protein)
chain: MRGSHHHHHHGSDLGKKLLEAARAGQDDEVRILMANGADVNATDASGLTPLHLAATYGHLEIVEVLLKHGADVNAIDLMGSTPLHLAALIGHLEIVEVLLKHGADVNAVDTWGDTPLHLAAIMGHLEIVEVLLKHGADVNAQDKFGKTAFDISIDNGNEDLAEILQKLN
**Q.** B13 was tested. Which response [1, 4] did it give?
**A.** 0.13 AU

**Q.** What about the response [2, 6] of the same binder?
**A.** 0.4 AU

B14: DARPin D1 I32V; N74S; I76S; I78L; H118R; I122V; E127K; V131A; F150Y; I152T; N158S (protein)
chain: MRGSHHHHHHGSDLGKKLLEAARAGQDDEVRVLMANGADVNATDASGLTPLHLAATYGHLEIVEVLLKHGADVSASDLMGSTPLHLAALIGHLEIVEVLLKHGADVNAVDTWGDTPLRLAAVMGHLKIVEALLKHGADVNAQDKFGKTAYDTSIDNGSEDLAEILQKLN
**Q.** Which response [1, 3] does the source give for B14 here?
**A.** 0.38 AU

**Q.** And the response [1, 4]?
**A.** 0.74 AU

**Q.** What about the response [2, 5] of the same binder?
**A.** 0.72 AU

**Q.** And the response [2, 6]?
**A.** 0.74 AU

B15: DARPin D1 E127K (protein)
chain: MRGSHHHHHHGSDLGKKLLEAARAGQDDEVRILMANGADVNATDASGLTPLHLAATYGHLEIVEVLLKHGADVNAIDIMGSTPLHLAALIGHLEIVEVLLKHGADVNAVDTWGDTPLHLAAIMGHLKIVEVLLKHGADVNAQDKFGKTAFDISIDNGNEDLAEILQKLN
**Q.** Which results are given for B15?
**A.** response [1, 4]: 0.11 AU; response [2, 6]: 0.42 AU

B16: DARPin D1 I32V (protein)
chain: MRGSHHHHHHGSDLGKKLLEAARAGQDDEVRVLMANGADVNATDASGLTPLHLAATYGHLEIVEVLLKHGADVNAIDIMGSTPLHLAALIGHLEIVEVLLKHGADVNAVDTWGDTPLHLAAIMGHLEIVEVLLKHGADVNAQDKFGKTAFDISIDNGNEDLAEILQKLN
**Q.** B16 was tested. Which response [1, 4] did it give?
**A.** 0.11 AU

**Q.** What about the response [2, 6] of the same binder?
**A.** 0.31 AU

B17: DARPin D1 H118R; I152T; N158S (protein)
chain: MRGSHHHHHHGSDLGKKLLEAARAGQDDEVRILMANGADVNATDASGLTPLHLAATYGHLEIVEVLLKHGADVNAIDIMGSTPLHLAALIGHLEIVEVLLKHGADVNAVDTWGDTPLRLAAIMGHLEIVEVLLKHGADVNAQDKFGKTAFDTSIDNGSEDLAEILQKLN
**Q.** For B17, which response [1, 3] is on record?
**A.** 0.57 AU

**Q.** What about the response [2, 5] of the same binder?
**A.** 0.75 AU

B18: DARPin D1 I76S (protein)
chain: MRGSHHHHHHGSDLGKKLLEAARAGQDDEVRILMANGADVNATDASGLTPLHLAATYGHLEIVEVLLKHGADVNASDIMGSTPLHLAALIGHLEIVEVLLKHGADVNAVDTWGDTPLHLAAIMGHLEIVEVLLKHGADVNAQDKFGKTAFDISIDNGNEDLAEILQKLN
**Q.** B18 was tested. Which response [1, 4] did it give?
**A.** 0.15 AU

**Q.** What about the response [2, 6] of the same binder?
**A.** 0.3 AU

— PMC4933879
